The target of assay [1] is T1, CD137 on the surface of cells (activated human T cells; engineered CHO cells) (human, UniProt Q07011 24-255).
T1 construct: whole, on cells; also called human CD137; cell surface expressed CD137
Briefly: flow cytometry on CD137-expressing CHO cells (CHO/137), anti-hFc APC MFI. In general terms: A flow cytometer gives signals particle by particle.

Assay [2] deals with T1, CD137 on the surface of cells …. Description: flow cytometry on activated pan T cells gated CD8, anti-hFc APC MFI.
In assay [3] the target is T2, HER2/neu on the surface of target cells (N87, JIMT-1, MCF-7, MDA-MB231) (UniProt P04626 23-1255, limits assumed).
T2 construct: whole, on cells
Description: flow cytometry on JIMT-1 cells, anti-hFc APC MFI. On the procedure:
(§1) CD137×TA Binding Molecules, DART-B, DART-D, DART-G and the control molecules DART-3 and DART-6 were additionally evaluated for their ability to bind to HER2/neu expressed on N87 cells (FIG. 13A) and JIMT-1 cells (FIG. 13B). For such evaluation, 100 μL of HER2/neu expressing target cells (1.0×1⁰⁶ cells/mL) and 100 μL of serially diluted (5- or 10-fold dilutions) test article (bispecific diabody) were added to each well of microtiter assay plate(s), mixed and incubated at RT for 45 min. The cells were washed with FACS Buffer and secondary antibody (anti-human-Fc region-APC) was then added to each well; mixed and incubated at RT for 30 min. Cells were washed and resuspended in 100 μL FACS Buffer and analyzed by flow cytometry (BD LSR Fortessa or FACSCanto 11) for cell event collection. Data analysis were performed via FloJo v10.

Assay [4] concerns the target T3, extracellular portion of cynomolgus monkey CD137 fused to a histidine-containing peptide (cynomolgus monkey, UniProt A9YYE7 24-186).
T3 construct: extracellular domain; also called cynoCD137
T3 sequence: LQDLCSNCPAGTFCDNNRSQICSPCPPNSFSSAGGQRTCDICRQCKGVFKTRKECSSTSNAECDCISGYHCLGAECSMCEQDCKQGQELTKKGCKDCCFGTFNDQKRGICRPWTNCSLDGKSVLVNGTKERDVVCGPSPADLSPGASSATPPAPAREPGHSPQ
Briefly: SPR (BIACORE); molecule captured on anti-human Fc; cynoCD137 6.25-100 nM; column head ×10^-4 applied as printed. On the procedure: (§2) The amino acid sequences of these clones were incorporated into the 5 chain diabody DART-G to yield optimized DART-G molecules (designated as DART-G1, DART-G2; DART-G3, and DART-G4). The binding affinity of DART-G2, DART-G3, and DART-G4 were evaluated via BIAcore (Table 11). For such evaluation, His-tagged soluble human CD137 (huCD137) or cynomolgus monkey CD137 (cynoCD137) (containing an extracellular portion of human or cynomolgus monkey CD137 fused to a histidine-containing peptide) was passed over a surface coated with immobilized antibody. Briefly, each test molecule was captured onto an F(ab)₂ goat-anti-human Fc-coated surface and then incubated in the presence of different concentrations (6.25-100 nM) of huCD137 or cynoCD137. The kinetics of binding were determined via BIACORE® analysis binding (normalized 1:1 Langmuir binding model).
For orientation: In SPR one partner is held on a chip, and binding of the other changes the refractive index at the surface.

Assay [5] addresses T2, HER2/neu on the surface of target cells …. Description: flow cytometry on N87 gastric cancer cells, anti-hFc APC MFI.
Assay [6] concerns the target T1, CD137 on the surface of cells …. Description: flow cytometry on activated pan T cells gated CD8, anti-hFc APC MFI. This is another data set of the same source.
Assay [7] has the same target. Description: flow cytometry on activated CD8+ T cells (CD8 FITC), anti-hFc APC MFI.
The target of assay [8] is T2, HER2/neu on the surface of target cells …. Description: flow cytometry on N87 gastric cancer cells, anti-hFc APC MFI. This is another data set of the same source.
The target is the same in assay [9]. Description: flow cytometry on N87 cells, anti-hFc APC MFI. As to the method:
as §1

Assay [10] addresses T4, extracellular portion of human CD137 fused to a histidine-containing peptide (human, UniProt Q07011 24-186).
T4 construct: extracellular domain; also called huCD137; His-tagged soluble human CD137
Description: SPR (BIACORE); molecule captured on anti-human Fc; huCD137 6.25-100 nM; 1:1 Langmuir. As to the method: as §2

Assay [11] concerns the target T3, extracellular portion of cynomolgus …. Description: SPR (BIACORE); molecule captured on anti-human Fc; cynoCD137 6.25-100 nM; 1:1 Langmuir. On the procedure: as §2

The source of these data is patent US20220406376A1 (MacroGenics, published 2022).

T1 sequence (Q07011 24-255, change not shown): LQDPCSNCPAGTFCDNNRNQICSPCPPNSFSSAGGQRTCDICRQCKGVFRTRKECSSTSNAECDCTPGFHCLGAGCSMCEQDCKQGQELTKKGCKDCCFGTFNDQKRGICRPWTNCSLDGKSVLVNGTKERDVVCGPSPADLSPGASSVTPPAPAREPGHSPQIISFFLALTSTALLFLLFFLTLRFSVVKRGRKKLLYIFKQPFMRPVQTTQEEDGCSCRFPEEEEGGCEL

B1: DART-D (bispecific antibody, human IgG1, kappa, L234A L235A)
heavy: QVQLVQSGAEVKKPGASVKVSCKASGYTFTNYGMNWVRQAPGQGLEWMGWINTNIGEPTYTEEFKGRVTMTRDTSISTAYMELSRLRSDDTAVYYCARDDGYGNRVSYWGQGTLVTVSSASTKGPSVFPLAPSSKSTSGGTAALGCLVKDYFPEPVTVSWNSGALTSGVHTFPAVLQSSGLYSLSSVVTVPSSSLGTQTYICNVNHKPSNTKVDKRVEPKSCDKTHTCPPCPAPEAAGGPSVFLFPPKPKDTLMISRTPEVTCVVVDVSHEDPEVKFNWYVDGVEVHNAKTKPREEQYNSTYRVVSVLTVLHQDWLNGKEYKCKVSNKALPAPIEKTISKAKGQPREPQVYTLPPSREEMTKNQVSLSCAVKGFYPSDIAVEWESNGQPENNYKTTPPVLDSDGSFFLVSKLTVDKSRWQQGNVFSCSVMHEALHNRYTQKSLSLSPGK
light: DIQMTQSPSSLSASVGDRVTITCKASQDISNYLSWFQQKPGKAPKTLIYRANRLQSGVPSRFSGSGSGTDFTLTISSLQPEDFATYYCLQHDEFPWTFGQGTKLEIKRTVAAPSVFIFPPSDEQLKSGTASVVCLLNNFYPREAKVQWKVDNALQSGNSQESVTEQDSKDSTYSLSSTLTLSKADYEKHKVYACEVTHQGLSSPVTKSFNRGEC
chain 1: QVQLVQSGAEVKKPGASVKVSCKASGYTFTNYGMNWVRQAPGQGLEWMGWINTNIGEPTYTEEFKGRVTMTRDTSISTAYMELSRLRSDDTAVYYCARDDGYGNRVSYWGQGTLVTVSSASTKGPSVFPLAPSSKSTSGGTAALGCLVKDYFPEPVTVSWNSGALTSGVHTFPAVLQSSGLYSLSSVVTVPSSSLGTQTYICNVNHKPSNTKVDKRVEPKSCDKTHTCPPCPAPEAAGGPSVFLFPPKPKDTLMISRTPEVTCVVVDVSHEDPEVKFNWYVDGVEVHNAKTKPREEQYNSTYRVVSVLTVLHQDWLNGKEYKCKVSNKALPAPIEKTISKAKGQPREPQVYTLPPSREEMTKNQVSLWCLVKGFYPSDIAVEWESNGQPENNYKTTPPVLDSDGSFFLYSKLTVDKSRWQQGNVFSCSVMHEALHNHYTQKSLSLSPGGGGSGGGSGGGDIQMTQTTSSLSASLGDRVTISCRPSQDISNYLNWYQQKPDGTVKLLIYYTSRLRSGVPSRFSGSGSGTDYSLTISNLEQEDIATYFCQQGDTLPYTFGGGTKLEIKGGGSGGGGQVQLQQPGAELVRPGASVKLSCKASGYTFTSYWINWVKQRPGQGLEWIGNIYPSDSYTNYNQKFKDKATLTVDKSSSTAYMQLSSPTSEDSAVYYCTRDYGSSYSFDYWGQGTTLTVSSGGCGGGEVAALEKEVAALEKEVAALEKEVAALEK
chain 2: DIQMTQTTSSLSASLGDRVTISCRPSQDISNYLNWYQQKPDGTVKLLIYYTSRLRSGVPSRFSGSGSGTDYSLTISNLEQEDIATYFCQQGDTLPYTFGGGTKLEIKGGGSGGGGQVQLQQPGAELVRPGASVKLSCKASGYTFTSYWINWVKQRPGQGLEWIGNIYPSDSYTNYNQKFKDKATLTVDKSSSTAYMQLSSPTSEDSAVYYCTRDYGSSYSFDYWGQGTTLTVSSGGCGGGKVAALKEKVAALKEKVAALKEKVAALKE
The term EC50 (read off the curve) denotes the concentration giving half of the maximal effect. For orientation: koff means a measure of how fast the partners let go of each other. By Kd is commonly meant a measure of binding affinity in units of concentration. The term kon denotes a measure of how fast the partners come together. Take B1: the “EC50 (read off the curve)” value is around 0.02 µg/mL in [1]; around 200 pM in assay [2]; around 0.03 µg/mL in assay [3]; around 500 pM in [5]; around 200 pM in assay [6]; around 0.02 µg/mL in assay [7]. The “EC50 (read off the curve)” value was around 500 pM in assay [8] and around 0.07 µg/mL in [9]. The figures for the koff in assay [4] and in [10] were 0.031 s⁻¹ and 0.025 s⁻¹, respectively. Also, the Kd in assay [10] worked out at 53000 pM; in assay [11], 67000 pM. For the same molecule, the kon in [10] came to 470000 M⁻¹ s⁻¹; in assay [11], 460000 M⁻¹ s⁻¹.
